T1: FcγRIIb (human, UniProt P31994 43-217)
T1 construct: extracellular domain; also called FcgRIIb; 2b
T1 sequence (looked up): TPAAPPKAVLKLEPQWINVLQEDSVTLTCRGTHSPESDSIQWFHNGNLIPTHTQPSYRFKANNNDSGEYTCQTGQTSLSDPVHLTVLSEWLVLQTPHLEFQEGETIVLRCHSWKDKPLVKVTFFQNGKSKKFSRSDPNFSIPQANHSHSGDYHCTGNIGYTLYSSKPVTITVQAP

T2: FcγRIIb (human, UniProt P31994 43-217)
T2 construct: extracellular domain; also called 2b
T2 sequence (looked up): T1 sequence (looked up)

T3: FcγRIIa H (human, UniProt P12318 34-217)
T3 construct: extracellular domain; also called FcγRIIa type H; 2aH
T3 sequence (looked up): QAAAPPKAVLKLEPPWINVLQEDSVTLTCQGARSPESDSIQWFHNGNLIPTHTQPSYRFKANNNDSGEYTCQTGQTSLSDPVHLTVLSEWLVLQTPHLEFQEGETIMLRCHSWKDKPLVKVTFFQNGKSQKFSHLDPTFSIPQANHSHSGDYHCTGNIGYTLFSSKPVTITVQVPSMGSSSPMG

B1: GpH7-A5/GpH7-B3 variant (E269_01G)/GpL16-k0 (antibody, human IgG1, kappa)
heavy 1: not shown
heavy 2: not shown
light: DIVMTQSPLSLPVTPGEPASISCQASESLVHSNRNTYLHWYLQKPGQSPQLLIYKVSNRFSGVPDRFSGSGSGTDFTLKISRVEAEDVGVYYCSQNTHVPPTFGQGTKVEIERTVAAPSVFIFPPSDEQLKSGTASVVCLLNNFYPREAKVQWKVDNALQSGNSQESVTEQDSKDSTYSLSSTLTLSKADYEKHKVYACEVTHQGLSSPVTKSFNRGEC
notes: IgG1 heterodimer, mutation in the GpH7-B3 chain only; also called He Ab
B2: GpH7-A5/GpH7-B3 variant (G236_07I)/GpL16-k0 (antibody, human IgG1, kappa)
heavy 1: not shown
heavy 2: not shown
light: B1 light
notes: as for B1
B3: GpH7-A5/GpH7-B3 variant (H268_04F)/GpL16-k0 (antibody, human IgG1, kappa)
heavy 1: not shown
heavy 2: not shown
light: B1 light
notes: as for B1
B4: GpH7-A5/GpH7-B3 variant (E269_18N)/GpL16-k0 (antibody, human IgG1, kappa)
heavy 1: not shown
heavy 2: not shown
light: B1 light
notes: as for B1
B5: GpH7-A5/GpH7-B3 variant (E269_19Q)/GpL16-k0 (antibody, human IgG1, kappa)
heavy 1: not shown
heavy 2: not shown
light: B1 light
notes: as for B1
B6: GpH7-A5/GpH7-B3 variant (D265_10E)/GpL16-k0 (antibody, human IgG1, kappa)
heavy 1: not shown
heavy 2: not shown
light: B1 light
notes: as for B1
B7: GpH7-A5/GpH7-B3 variant (G236_12R)/GpL16-k0 (antibody, human IgG1, kappa)
heavy 1: not shown
heavy 2: not shown
light: B1 light
notes: as for B1
B8: GpH7-A5/GpH7-B3 variant (G236_03V)/GpL16-k0 (antibody, human IgG1, kappa)
heavy 1: not shown
heavy 2: not shown
light: B1 light
notes: as for B1
B9: GpH7-A5/GpH7-B3 variant P331_15Y/GpL16-k0 (antibody, human IgG1, kappa)
heavy 1: not shown
heavy 2: not shown
light: B1 light
notes: heterodimerized IgG1, mutation in one H chain only; also called He Ab
B10: GpH7-A5/GpH7-B3 variant (G236_19Q)/GpL16-k0 (antibody, human IgG1, kappa)
heavy 1: not shown
heavy 2: not shown
light: B1 light
notes: as for B1
B11: GpH7-A5/GpH7-B3 variant (G236_04F)/GpL16-k0 (antibody, human IgG1, kappa)
heavy 1: not shown
heavy 2: not shown
light: B1 light
notes: as for B1
B12: GpH7-A5/GpH7-B3 variant (H268_08L)/GpL16-k0 (antibody, human IgG1, kappa)
heavy 1: not shown
heavy 2: not shown
light: B1 light
notes: as for B1
B13: GpH7-A5/GpH7-B3 variant (G236_05P)/GpL16-k0 (antibody, human IgG1, kappa)
heavy 1: not shown
heavy 2: not shown
light: B1 light
notes: as for B1
B14: GpH7-A5/GpH7-B3 variant (G236_08L)/GpL16-k0 (antibody, human IgG1, kappa)
heavy 1: not shown
heavy 2: not shown
light: B1 light
notes: as for B1
B15: GpH7-A5/GpH7-B3 variant (G236_15Y)/GpL16-k0 (antibody, human IgG1, kappa)
heavy 1: not shown
heavy 2: not shown
light: B1 light
notes: as for B1
B16: GpH7-A5/GpH7-B3 variant (E269_07I)/GpL16-k0 (antibody, human IgG1, kappa)
heavy 1: not shown
heavy 2: not shown
light: B1 light
notes: as for B1
B17: GpH7-A5/GpH7-B3 variant (L235_12R)/GpL16-k0 (antibody, human IgG1, kappa)
heavy 1: not shown
heavy 2: not shown
light: B1 light
notes: as for B1
B18: GpH7-A5/GpH7-B3 variant (E269_13S)/GpL16-k0 (antibody, human IgG1, kappa)
heavy 1: not shown
heavy 2: not shown
light: B1 light
notes: as for B1
B19: GpH7-A5/GpH7-B3 variant (G236_11K)/GpL16-k0 (antibody, human IgG1, kappa)
heavy 1: not shown
heavy 2: not shown
light: B1 light
notes: as for B1
B20: GpH7-A5/GpH7-B3 variant (H268_11K)/GpL16-k0 (antibody, human IgG1, kappa)
heavy 1: not shown
heavy 2: not shown
light: B1 light
notes: as for B1
B21: GpH7-A5/GpH7-B3 variant (E269_20W)/GpL16-k0 (antibody, human IgG1, kappa)
heavy 1: not shown
heavy 2: not shown
light: B1 light
notes: as for B1

Columns and labels:
[1] = target: T1, FcγRIIb; experiment: SPR, captured antibody; relative to GpH7-A5/GpH7-B3/GpL16-k0
[2] = target: T4, FcγRIa (human, UniProt P12314 16-292); experiment: as above
T4 construct: extracellular domain; also called FcgRI; 1a

[3] = target: T2, FcγRIIb; experiment: SPR (Biacore), relative binding vs GpH7-A5/GpH7-B3/GpL16-k0
Description: (§1) The heterodimerized antibodies He Abs in which one of the H chains was introduced with an alteration were assayed for their binding activities to each activating FcγR and inhibitory FcγR according to the method described in Example 4. […] The activating FcγRs in FIGS. 26, 27, 28, and 29 are FcγRIa, FcγRIIa (R), FcγRIIa (H), and FcγRIIIa, respectively.
(§2) Analysis of interaction between objective antibody and the FcγR was carried out using Biacore T100 (GE Healthcare). HBS-EP+ (GE Healthcare) was used as the running buffer, and the measurement temperature was set to 25° C. Chips produced by immobilizing the antigen peptide by the amine coupling method to a Series S Sencor Chip CM5 (GE Healthcare), or alternatively, chips produced by allowing preliminarily biotinylated antigen peptides to interact with and immobilize onto a Series S Sensor Chip SA (certified) (GE Healthcare) were used. Antibodies of interest were captured onto an antigen peptide-immobilized chip, and allowed to interact to each FcγR diluted with running buffer. To regenerate and repeatedly use the chip, the antibodies captured on the chip were washed off by reacting 10 mM glycine-HCl, pH 1.5.

[4] = target: T3, FcγRIIa H; experiment: as above
Description: as §1, §2

T4 sequence (P12314 16-292): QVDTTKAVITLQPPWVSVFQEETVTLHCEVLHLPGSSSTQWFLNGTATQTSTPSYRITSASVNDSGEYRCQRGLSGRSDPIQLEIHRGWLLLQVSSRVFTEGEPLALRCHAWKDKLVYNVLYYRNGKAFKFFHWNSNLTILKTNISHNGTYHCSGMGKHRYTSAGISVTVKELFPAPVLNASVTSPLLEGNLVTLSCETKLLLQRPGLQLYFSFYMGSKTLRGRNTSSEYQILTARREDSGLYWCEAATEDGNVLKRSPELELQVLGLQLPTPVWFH

Binder	He/Con_2b [1]	He/Con_1a [2]	He/Con_2b [3]	He/Con_2aH [4]
B1	51.5 relative, HeCon Ab = 100	104 relative, HeCon Ab = 100		
B2	31 relative, HeCon Ab = 100	87.5 relative, HeCon Ab = 100		
B3	89.6 relative, HeCon Ab = 100	106 relative, HeCon Ab = 100		
B4	44.8 relative, HeCon Ab = 100	102 relative, HeCon Ab = 100		
B5	44.3 relative, HeCon Ab = 100	105 relative, HeCon Ab = 100		
B6	38.2 relative, HeCon Ab = 100	101 relative, HeCon Ab = 100		
B7	6.8 relative, HeCon Ab = 100	63.1 relative, HeCon Ab = 100		
B8	35.3 relative, HeCon Ab = 100	89.9 relative, HeCon Ab = 100		
B9			114 % of control He Ab (=100)	86 % of control He Ab (=100)
B10	46.6 relative, HeCon Ab = 100	92.1 relative, HeCon Ab = 100		
B11	39.3 relative, HeCon Ab = 100	96.4 relative, HeCon Ab = 100		
B12	67.8 relative, HeCon Ab = 100	107 relative, HeCon Ab = 100		
B13	19 relative, HeCon Ab = 100	77 relative, HeCon Ab = 100		
B14	26.8 relative, HeCon Ab = 100	79.6 relative, HeCon Ab = 100		
B15	39.5 relative, HeCon Ab = 100	92.5 relative, HeCon Ab = 100		
B16	43.9 relative, HeCon Ab = 100	103 relative, HeCon Ab = 100		
B17		78 relative, HeCon Ab = 100		
B18	47.8 relative, HeCon Ab = 100	103 relative, HeCon Ab = 100		
B19	49.8 relative, HeCon Ab = 100	71 relative, HeCon Ab = 100		
B20	83 relative, HeCon Ab = 100	106 relative, HeCon Ab = 100		
B21	42.5 relative, HeCon Ab = 100	105 relative, HeCon Ab = 100		

From patent US20180155451A1 (published 2018)
